The text below walks through data of patent publication US8299028B2, “Chimeric peptide antagonist for GPCR135 or GPCR142” (Janssen Pharmaceutica NV, priority 2007, dated 2012).

The term EC50 denotes the concentration needed to bring the measured effect to its halfway point.

Holding throughout (format): cell-based
Design in all cases: expressed in transfected cells

Test [1] addresses T1, human GPCR135 (Homo sapiens, UniProt Q9NSD7).
T1 sequence (Q9NSD7 1-469): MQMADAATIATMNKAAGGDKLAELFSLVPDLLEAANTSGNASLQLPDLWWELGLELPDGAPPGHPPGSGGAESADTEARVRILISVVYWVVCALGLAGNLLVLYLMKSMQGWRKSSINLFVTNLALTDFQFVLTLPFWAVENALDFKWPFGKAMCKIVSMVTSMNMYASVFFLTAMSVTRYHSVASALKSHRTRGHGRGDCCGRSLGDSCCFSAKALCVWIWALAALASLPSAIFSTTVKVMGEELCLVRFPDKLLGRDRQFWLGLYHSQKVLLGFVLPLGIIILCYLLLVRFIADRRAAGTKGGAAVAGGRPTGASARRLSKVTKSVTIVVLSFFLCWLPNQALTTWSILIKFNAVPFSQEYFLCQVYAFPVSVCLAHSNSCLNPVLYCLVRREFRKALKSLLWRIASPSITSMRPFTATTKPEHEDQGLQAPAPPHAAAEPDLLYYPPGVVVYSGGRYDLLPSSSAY
The test is described as follows: Agonist assay, inhibition of forskolin-induced β-gal expression in SK-N-MC/CRE-β-gal cells. The settings on record: human GPCR135 agonist response, mean ± SEM; NA = no agonist activity observed. As to the method: (§1) FIG. 1 provides a characterization of mutant relaxin-3 peptides as ligands for human GPCR135, GPCR142, and LGR7. The truncated peptides were tested for their GPCR135 and GPCR142 agonist activity using SK-N-MC/CRE-β-gal cells expressing either human GPCR135 (A) or GPCR142 (B). Agonists for GPCR135 or GPCR142 inhibit forskolin induced β-galactosidase (β-gal) expression. The LGR7 agonist activity of the truncated peptides was tested using SK-N-MC/CRE-β-gal cells expressing Gαs-linked human LGR7 (C). Human relaxin-3 was used as positive control in both cases. β-gal expression was measured by colorimetric assay using CPRG as the substrate and reading the absorbance at 570 nm.
(§2) All peptides were tested for their GPCR135, GPCR142, and LGR7 agonist activities in SK-N-MC/CRE cells expressing the relevant receptors as described by Liu et al., 2005b. […] An increase in cAMP concentration in these cells is associated with increased β-gal expression, which can be measured using Chlorophenol Red-β-D-Galactopyranoside (CRGP) as a substrate and reading the optical absorbance at 570 nm. […] The results were analyzed using GraphPad Prism 4.0 software. […] The agonism and antagonism of peptides for rat LGR7 was assayed using a cAMP luminescence assay. […] The cAMP in the cells was measured with a cAMP detection kit (DiscoveRx HitHunter, Cat. #90-0041) according to the manufacturer's protocol. […]

The target in the next test is human GPCR142 (Homo sapiens, UniProt Q8TDU9). The test is described as above. The note with it: human GPCR142 agonist response, mean ± SEM; NA = no agonist activity observed. As to the method:
as §1, §2

The target in test [2] is T1, human GPCR135. The test is described as follows: Antagonism: rightward shift of relaxin-3 dose-response curve, SK-N-MC/CRE-β-gal reporter assay. The note with it: pharmacological characterization. Here is the method:
In a functional assay using SK-N-MC/CRE-β-gal cells expressing human GPCR135 (A), GPCR142 (B) or LGR7 (C), ascending concentrations of relaxin-3 (R3) were used to generate dose response curves either in the absence or presence of 10 nM, 100 nM or 1 μM R3(BΔ23-27)R/I5. For Gαi linked GPCR135 and GPCR142, the assay was performed as inhibition of forskolin-induced β-gal expression. LGR7 is linked to Gαs, therefore addition of forskolin is not necessary. The antagonism of R3(BΔ23-27)R/I5 is indicated by the rightward-shift of the relaxin-3's dose-response curve.
All peptides were tested for their GPCR135, GPCR142, and LGR7 agonist activities in SK-N-MC/CRE cells expressing the relevant receptors as described by Liu et al., 2005b. […] An increase in cAMP concentration in these cells is associated with increased β-gal expression, which can be measured using Chlorophenol Red-β-D-Galactopyranoside (CRGP) as a substrate and reading the optical absorbance at 570 nm. […] The results were analyzed using GraphPad Prism 4.0 software. […] The agonism and antagonism of peptides for rat LGR7 was assayed using a cAMP luminescence assay. […] The cAMP in the cells was measured with a cAMP detection kit (DiscoveRx HitHunter, Cat. #90-0041) according to the manufacturer's protocol. The results were analyzed using GraphPad Prism 4.0 software.
For orientation: Reporter assays use an easily measured gene product as a stand-in for the process of interest.

human GPCR142, sequence (Q8TDU9 whole entry): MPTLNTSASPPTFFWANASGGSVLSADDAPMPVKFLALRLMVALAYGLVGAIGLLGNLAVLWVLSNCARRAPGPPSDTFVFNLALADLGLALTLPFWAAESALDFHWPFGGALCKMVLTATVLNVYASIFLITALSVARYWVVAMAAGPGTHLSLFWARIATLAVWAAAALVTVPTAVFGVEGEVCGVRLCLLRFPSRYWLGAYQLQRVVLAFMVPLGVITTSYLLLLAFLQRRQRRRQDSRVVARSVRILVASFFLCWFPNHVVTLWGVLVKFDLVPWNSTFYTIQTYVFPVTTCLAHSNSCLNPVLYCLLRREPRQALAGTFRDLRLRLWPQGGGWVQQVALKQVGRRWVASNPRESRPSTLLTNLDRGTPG

Turning to “R3(BΔ23-27)R: Relaxin-3 mutant: B-chain SEQ ID NO:15 (Gly23-Trp27 deleted plus C-terminal Arg), relaxin-3 A-chain SEQ ID NO:13”, the concentration giving a half-maximal response (EC50) with human GPCR135 [1] and with human GPCR142 was > 1 µM each time. Also, in the test with human GPCR135 [2], the “GPCR135 antagonist character” value was “GPCR135 antagonists”.
